From publication PMC12373895

Columns and labels:
Assay in all cases: ELONA
ERA GTPase [1] = biological target: T1, ERA GTPase (Staphylococcus aureus, UniProt Q2FY06 1-299)
T1 sequence: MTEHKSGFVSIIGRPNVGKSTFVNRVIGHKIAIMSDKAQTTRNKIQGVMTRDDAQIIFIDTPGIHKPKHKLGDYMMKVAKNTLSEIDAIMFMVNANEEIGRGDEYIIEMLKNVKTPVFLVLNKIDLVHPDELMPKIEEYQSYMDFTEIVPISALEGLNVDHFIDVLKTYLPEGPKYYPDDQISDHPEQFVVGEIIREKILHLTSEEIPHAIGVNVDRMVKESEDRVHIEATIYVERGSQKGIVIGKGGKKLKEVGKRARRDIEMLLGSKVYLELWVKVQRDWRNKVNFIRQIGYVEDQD

ERA GTPase [2] = biological target: T1, ERA GTPase; remark: listed apart in the source
[3] = biological target: T2, 1F8 (Chagas antigenic protein) (Trypanosoma cruzi, UniProt P07749 1-211)
T2 sequence: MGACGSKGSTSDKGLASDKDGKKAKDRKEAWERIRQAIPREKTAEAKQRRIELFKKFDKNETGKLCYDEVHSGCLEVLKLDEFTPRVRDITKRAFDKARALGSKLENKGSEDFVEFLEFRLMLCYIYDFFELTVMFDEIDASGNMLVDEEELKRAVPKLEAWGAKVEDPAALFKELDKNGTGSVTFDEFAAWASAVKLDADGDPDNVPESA

ERA deltaKH = biological target: T3, ERA deltaKH (Staphylococcus aureus, UniProt Q2FY06 1-202)
T3 sequence: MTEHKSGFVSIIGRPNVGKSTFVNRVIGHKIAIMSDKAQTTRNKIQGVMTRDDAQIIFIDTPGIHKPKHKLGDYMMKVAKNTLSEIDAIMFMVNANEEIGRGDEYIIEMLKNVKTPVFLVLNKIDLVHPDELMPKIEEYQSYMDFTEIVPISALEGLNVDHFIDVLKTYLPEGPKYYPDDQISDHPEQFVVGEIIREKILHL

With TACTAGCCCTACCTGTACTCTCGAGCCGATTTTAAGGATC (ssDNA) [AptERA 2 (40 nt)] the Kd (ERA GTPase [1]) was 243 ± 16 nM, the “apparent K (half saturation)” value (ERA GTPase [2]) was 185 ± 3 nM and the binding result [3] was “no binding”. TACTAGCCCTACCTGTACTCTCGAGCCGATTTTAAGGATC (ssDNA) [AptERA 2 (40 nt)]: no binding (ERA deltaKH).
